Experimental data as given in the supplement of paper PMC10724198.
± gives the standard deviation of the averaged measurements.

Legend:
Saccharomyces cerevisiae [1] = assay: protein stability index of tFT-peptide fusion (C-terminal peptide) (PSI (0-1 scale)); higher = more stable (slower turnover); conditions: genetic background: wild type; temperature: 30 C
Saccharomyces cerevisiae [2] = assay: as above
Procedure: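 MPS profiling in S. cerevisiae of the tFT-X12 degron library: putative degron peptides plus stable controls, 12 aa, fused to the C-terminus of a sfGFP-mCherry timer. Cells are FACS-sorted into 8 mCherry/sfGFP bins and deep-sequenced. PSI runs from 0 (unstable) to 1 (stable). Backgrounds are wild type, das1Δ and doa10Δ at 30 °C, and wild type, das1Δ, cdc34-1 and cdc53-1 at 37 °C; 2-3 technical replicates each.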

[3] = genetic background: cdc34-1, temperature: 37 C
[4] = genetic background: cdc53-1, temperature: 37 C
[5] = genetic background: das1 deletion, temperature: 30 C
[6] = genetic background: das1 deletion, temperature: 37 C
[7] = genetic background: doa10 deletion, temperature: 30 C
[8] = genetic background: wild type, temperature: 30 C
[9] = genetic background: wild type, temperature: 37 C
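Note: PSI is a weighted mean of sequencing reads over stability bins, variants kept only with over 10 reads, mCherry proximal and sfGFP distal, peptide attached via GGGS linker.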

Row | Sequence | protein stability index (Saccharomyces cerevisiae [1]) | protein stability index (Saccharomyces cerevisiae [2]; [3]) | protein stability index (Saccharomyces cerevisiae [2]; [4]) | protein stability index (Saccharomyces cerevisiae [2]; [5]) | protein stability index (Saccharomyces cerevisiae [2]; [6]) | protein stability index (Saccharomyces cerevisiae [2]; [7]) | protein stability index (Saccharomyces cerevisiae [2]; [8]) | protein stability index (Saccharomyces cerevisiae [2]; [9])
1 | IFRVTGFPIYIF | 0.297 ± 0.012 | 0.327 ± 0.045 | 0.36 ± 0.024 | 0.339 ± 0.021 | 0.4535 ± 0.0037 | 0.222 ± 0.014 | 0.233 ± 0.025 | 0.3522 ± 0.0011
2 | MALAVRVVFCGA | 0.371 ± 0.058 | 0.3299 ± 0.0012 | 0.338 ± 0.0067 | 0.275 ± 0.032 | 0.436 ± 0.015 | 0.227 ± 0.0095 | 0.27 ± 0.025 | 0.418 ± 0.01
3 | SEVMVGLRLTLN | 0.416 ± 0.038 | 0.67 ± 0.051 | 0.728 ± 0.018 | 0.628 ± 0.033 | 0.7149 ± 0.0029 | 0.282 ± 0.0065 | 0.318 ± 0.03 | 0.545 ± 0.029
4 | ALLLLLRRFFLV | 0.154 ± 0.029 | 0.432 ± 0.034 | 0.659 ± 0.029 | 0.643 ± 0.014 | 0.739 ± 0.013 | 0.0867 ± 0.003 | 0.101 ± 0.044 | 0.0903 ± 0.02
5 | PTAGFFGLLVLV | 0.397 ± 0.005 | 0.361 ± 0.0094 | 0.402 ± 0.035 | 0.294 ± 0.029 | 0.439 ± 0.005 | 0.279 ± 0.0034 | 0.286 ± 0.02 | 0.4087 ± 0.00047
6 | FFFSFSFPFLSF | 0.518 ± 0.034 | 0.462 ± 0.014 | 0.481 ± 0.027 | 0.464 ± 0.023 | 0.559 ± 0.0068 | 0.55 ± 0.022 | 0.477 ± 0.018 | 0.555 ± 0.031
7 | VLVVLRSEVSLS | 0.284 ± 0.015 | 0.286 ± 0.0038 | 0.398 ± 0.022 | 0.227 ± 0.027 | 0.3847 ± 0.0022 | 0.1948 ± 0.0011 | 0.22 ± 0.02 | 0.371 ± 0.0053
8 | SMFFLFFFFFFF | 0.36 ± 0.04 | 0.396 ± 0.0071 | 0.356 ± 0.018 | 0.35 ± 0.042 | 0.444 ± 0.034 | 0.432 ± 0.028 | 0.328 ± 0.017 | 0.4177 ± 0.0027
9 | VFGSVAALRLLM | 0.378 ± 0.095 | 0.666 ± 0.048 | 0.73216 ± 0.00032 | 0.6508 ± 0.0024 | 0.7704 ± 0.003 | 0.193 ± 0.007 | 0.208 ± 0.042 | 0.414 ± 0.036
10 | HHRLRQGLRRIN | 0.462 ± 0.014 | 0.64 ± 0.039 | 0.7278 ± 0.0055 | 0.638 ± 0.0082 | 0.7023 ± 0.003 | 0.251 ± 0.0034 | 0.293 ± 0.0082 | 0.5161 ± 0.0011
11 | DRTRLFLLLIIA | 0.246 ± 0.042 | 0.179 ± 0.0023 | 0.256 ± 0.038 | 0.202 ± 0.028 | 0.4013 ± 0.0035 | 0.139 ± 0.0068 | 0.165 ± 0.016 | 0.273 ± 0.019
12 | CVCVVVCWRCGF | 0.481 ± 0.015 | 0.378 ± 0.018 | 0.465 ± 0.035 | 0.306 ± 0.031 | 0.509 ± 0.021 | 0.276 ± 0.0091 | 0.327 ± 0.034 | 0.4555 ± 0.0043
13 | FPFFFLSILSAV | 0.177 ± 0.019 | 0.262 ± 0.015 | 0.2944 ± 0.0028 | 0.256 ± 0.037 | 0.383 ± 0.0098 | 0.11 ± 0.0067 | 0.122 ± 0.023 | 0.168 ± 0.0078
14 | KKKEILVYIIQE | 0.484 ± 0.014 | 0.598 ± 0.036 | 0.612 ± 0.024 | 0.438 ± 0.029 | 0.578 ± 0.018 | 0.4732 ± 0.0016 | 0.512 ± 0.077 | 0.592 ± 0.02
15 | RRQQNHRQLCAT | 0.401 ± 0.016 | 0.65 ± 0.092 | 0.708 ± 0.029 | 0.642 ± 0.028 | 0.7322 ± 0.0065 | 0.21 ± 0.018 | 0.259 ± 0.038 | 0.518 ± 0.038
16 | CMLGVVRVLVWF | 0.186 ± 0.033 | 0.028 ± 0.0058 | 0.138 ± 0.075 | 0.129 ± 0.029 | 0.1929 ± 0.0009 | 0.101 ± 0.0035 | 0.105 ± 0.051 | 0.17 ± 0.027
17 | WFFLFGFVFFFR | 0.411 ± 0.077 | 0.36 ± 0.059 | 0.4002 ± 0.0035 | 0.352 ± 0.044 | 0.475 ± 0.019 | 0.433 ± 0.018 | 0.351 ± 0.039 | 0.4444 ± 0.0032
18 | VAWFFFAYAFFM | 0.321 ± 0.0039 | 0.361 ± 0.058 | 0.451 ± 0.015 | 0.321 ± 0.043 | 0.488 ± 0.015 | 0.251 ± 0.0032 | 0.266 ± 0.026 | 0.407 ± 0.0093
19 | YIILLSRKCAFC | 0.503 ± 0.017 | 0.573 ± 0.017 | 0.65 ± 0.013 | 0.51 ± 0.018 | 0.645 ± 0.015 | 0.401 ± 0.011 | 0.396 ± 0.024 | 0.586 ± 0.029
20 | PPPHPPPATFLS | 0.479 ± 0.011 | 0.661 ± 0.029 | 0.692 ± 0.0097 | 0.676 ± 0.02 | 0.729 ± 0.022 | 0.401 ± 0.023 | 0.407 ± 0.021 | 0.596 ± 0.026
